# Non-standard residues stand in square brackets, D forms with d. No end group written: not given here. Nle = CCCC[C@H](N)C(=O)O
# Target: human Asp2 aspartyl protease (Hu-Asp2), recombinant enzyme used in the in vitro cleavage assays (human, UniProt P56817 22-453, limits assumed)
# Assay: cell-based or functional assay
# Sequence of human Asp2 aspartyl protease (Hu-Asp2), recombinant enzyme used in the in vitro cleavage assays (P56817 22-453 Q214H limits assumed): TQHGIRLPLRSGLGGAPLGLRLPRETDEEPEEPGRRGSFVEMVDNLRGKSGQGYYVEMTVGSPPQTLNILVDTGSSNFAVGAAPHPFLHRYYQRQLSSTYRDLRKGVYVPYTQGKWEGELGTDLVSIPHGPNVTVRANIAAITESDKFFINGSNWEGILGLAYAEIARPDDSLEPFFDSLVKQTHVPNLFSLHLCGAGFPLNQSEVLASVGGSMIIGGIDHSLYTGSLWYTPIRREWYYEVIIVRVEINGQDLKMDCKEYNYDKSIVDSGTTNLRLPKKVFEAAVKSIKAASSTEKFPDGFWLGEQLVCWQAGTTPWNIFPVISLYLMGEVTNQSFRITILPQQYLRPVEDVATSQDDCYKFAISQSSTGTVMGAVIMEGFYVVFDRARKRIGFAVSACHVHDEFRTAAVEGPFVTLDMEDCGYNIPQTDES
activity against peptide #3 (SEQ ID NO:134) [fold lower],"activity against SEVSY-EVEFR (SEQ ID NO:141), peptide activity assay [ratio]",Binder
~10,,KTIN[Nle]DVDPS [KTINnle-DVDPS]
,0.2,SEVNYEVEFR [SEVNY-EVEFR]

# Reference: patent US20030017991A1 (PHARMACIA AND UPJOHN COMPANY A DELAWARE, published 2003)
